Laboratory results taken from publication PMC8151288.

Experiments:
[1] = target: His6-PA3027 (Pseudomonas aeruginosa PAO1161) (UniProt Q9HZH9); assay: SEC-MALS; 100 uL of 1 mg/mL His6-PA3027 on Superdex 200 Increase 10/300 in Buffer S (20 mM MES pH 6.5, 200 mM (NH4)2SO4, 200 mM NaCl), room temperature, 0.5 mL/min; monomer and dimer
[2] = target: His6-PA3027 (Pseudomonas aeruginosa PAO1161) (UniProt Q9HZH9); assay: cross-linking; purified His6-PA3027 cross-linked with increasing concentration of glutaraldehyde; Western blot with anti-His antibodies

**Q.** For “His6-PA3027 (from UniProt Q9HZH9 1-343) (natural protein)”, which stoichiometry N [1] is on record?
**A.** 2

**Q.** What about the stoichiometry N [2] of the same substance?
**A.** 2
